Data: patent US20120178693A1

Target: CMK-inhibited FVII (human Factor VII treated with a 'Phe-Pro-Arg' peptide based chloromethylketone inhibitor) (UniProt P08709)
Chain of UniProt P08709 (P08709 61-466): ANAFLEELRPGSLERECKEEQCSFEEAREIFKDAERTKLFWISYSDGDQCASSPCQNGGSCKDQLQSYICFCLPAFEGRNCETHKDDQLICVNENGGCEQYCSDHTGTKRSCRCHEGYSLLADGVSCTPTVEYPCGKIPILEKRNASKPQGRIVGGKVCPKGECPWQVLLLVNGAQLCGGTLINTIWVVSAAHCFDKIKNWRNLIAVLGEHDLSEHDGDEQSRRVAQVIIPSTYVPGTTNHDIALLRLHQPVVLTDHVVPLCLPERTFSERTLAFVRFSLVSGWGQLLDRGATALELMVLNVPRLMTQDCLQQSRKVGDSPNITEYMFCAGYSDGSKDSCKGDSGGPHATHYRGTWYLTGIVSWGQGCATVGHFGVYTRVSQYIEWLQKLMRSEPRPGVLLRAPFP

thrombin
activation of FVII by thrombin (rate of hydrolysis of the chromogenic substrate Chromozym-tPA): a low activation of FVII by thrombin was measured
